Laboratory results reported in paper PMC3758141, “Structural analysis of DNA–protein complexes regulating the restriction–modification system Esp1396I” (Acta Crystallographica Section F: Structural Biology and …, 2013).

T1: C.Esp1396I controller protein (plasmid pEsp1396I (type II RM system …, UniProt Q8GGH0 1-79))
T1 sequence: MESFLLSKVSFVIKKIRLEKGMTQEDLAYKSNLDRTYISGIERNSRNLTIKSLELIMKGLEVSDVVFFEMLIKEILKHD

B1: controller protein C.Esp1396I (natural protein)
chain: T1 sequence
notes: controller protein (C-protein) of the plasmid-borne type II restriction-modification system Esp1396I; 'native C.Esp1396I'; Homodimer; The His tag was removed with thrombin before crystallisation; In both crystals the dimer stands together with a DNA duplex (19 bp OR or 25 bp OL plus half of OR); also called C-protein; not shown: His6, N-terminal, cleaved
B2: 25OL (dsDNA)
DNA 1: ATGTGACTTATAGTCGTGTGATTA
DNA 2: TAATCACACGACTATAAGTCACAT

What was measured:
[1] = target: the molecule itself; assay: crystal structure; co-crystal of C.Esp1396I with the 19 bp OR DNA duplex (19OR), protein:DNA 1:1, 0.1 M PCB buffer pH 5.0, 25% PEG 3350, 10 mM spermidine, microseeding; 3.0 Å, space group C2
[2] = target: T1, C.Esp1396I controller protein; assay: X-ray crystallography; dimer bound at OL via HTH, OR half unbound; 10 mM spermidine, protein:DNA 2:1; Crystallization by vapour diffusion: 19OR 0.1 M PCB buffer pH 5.0, 25% PEG 3350, 10 mM spermidine (microseeded); 25OL 0.1 M PCB pH 4.0, 20% PEG 1500, 10 mM spermidine; temperature not stated; settings: protein: recombinant; tags: N-terminal His6 removed with thrombin; chain copies: 2; (called 25 bp, but printed strand has 24 nt)

Binder	binding result [1]	binding result [2]
B1	binds	
B2		binds
